Test results from paper PMC4996947, “Rapid α-oligomer formation mediated by the Aβ C terminus initiates an amyloid assembly pathway” (Nature Communications, 2016).
“And” between values parts separate entries of the source, which are not always exact repeats. Equal values may be shown once. Ends that are not written are not given here.

Assays:
[1] = Segmental HX-MS of the C-terminal pepsin fragment (35–42/35–40) of mature fibrils; assay type: physicochemical; conditions: mature amyloid fibrils, pepsin cleavage between Leu34 and Met35
Excerpt: According to our hypothesis and designs of the peptide models, we expected the Aβ segments of the hybrid peptides to not be involved in amyloid core formation. […] Since the typical α-helix band in FTIR overlaps the characteristic polyQ amyloid band at ∼1,657 cm^−1 (ref. [23]), it is not expected that we might observe any α-helical structure in these fibrils that might be analogous to the HTT^NT α-helix in HTT exon1 fibrils. To address whether a portion of the Aβ segment might be involved in stable β-structure in the fibrils, we used hydrogen–deuterium exchange evaluated by mass spectrometry (HX-MS). […] The absence of a large amount of β-structure within the Aβ segment of the polyQ-Aβ hybrid fibrils is consistent with the total β-structure content of about 50% seen in the CD spectra of the final amyloid suspensions (Figs 2j, 3h and 4j) of peptides containing about 50% Gln residues. […]
All HX-MS data were analysed using an Agilent 1100 series single quadruple ESI mass spectrometer. Aggregates were washed and incubated in D2O and the exchange reactions analysed after an appropriate exchange time. Global HX was analysed by simultaneous dissolution and MS analysis of the exchange reaction using a T-tube front end to the MS[62]; data were not corrected for back-exchange. […]

[2] = cited from earlier work
Procedure: Table 1 Amyloid nucleation and stabilization data. | column: Cr (μM) || We also addressed whether the Aβ appendages of these hybrid peptides provide any additional stability to the Q23 amyloid cores, in analogy to the stabilizing effect of HTT^NT on HTT exon1 amyloid. Stabilities were assessed by determining the concentration of monomer present when the amyloid assembly reaction reaches equilibrium (Supplementary Fig. 5)[41]. […] The results (Table 1) indicate some interesting trends.

Aβ42 aggregates = target: T1, Aβ42 aggregates (Homo sapiens, UniProt P05067); assay: Global hydrogen–deuterium exchange mass spectrometry (HX-MS) of aggregates; assay type: physicochemical; conditions: for Global HX incorporation: not corrected for back-exchange
T1 construct: purchased Keck Center (Keck Biotechnology Center at Yale University); obtained pre-purified
Procedure: All HX-MS data were analysed using an Agilent 1100 series single quadruple ESI mass spectrometer. Aggregates were washed and incubated in D2O and the exchange reactions analysed after an appropriate exchange time. Global HX was analysed by simultaneous dissolution and MS analysis of the exchange reaction using a T-tube front end to the MS[62]; data were not corrected for back-exchange. Segmental exchange was performed as described. Briefly, fibrils were recovered from the exchange reaction by centrifugation (20,800g, 30 min), and in a 4 °C room to 20 μl ice-cold 8 M Gdn.HCl plus 0.1% formic acid was added to the pellets and mixed for 10 s, then 100 μl pepsin agarose (Sigma-Aldrich) in 0.1% cold formic acid was added and mixed for 10 s. The sample was immediately centrifuged to remove the immobilized pepsin (20,800g, 30 s) and the supernatant subjected to 4 °C LC-MS analysis.

[3] = Spontaneous aggregation kinetics by sedimentation-HPLC assay (disappearance of monomer); assay type: physicochemical; conditions: 22 μM start, after 35 days, PBS, 37 °C
Procedure: Disaggregated peptide stock solutions were first checked for approximate concentration. All concentrations, for setting up the reaction and for assaying kinetics time points, were determined from integrated A214 HPLC (Agilent XDB-C18 4.6 × 50 mm column) peaks using standard curves individually constructed for each peptide from standard stock solutions calibrated via the A215 absorption[23][41]. […] Sodium azide was added to 0.05% (w/v) and pH adjusted to 7.4. After filtration through a 0.2 μm filter unit (Anotop 10) to get rid of aggregates, the solution was held at 4 °C while the t=0 concentration was determined (∼30 min). The reaction mixture was moved to 37 °C and kinetics monitored by the sedimentation and ThT assays on reaction aliquots and by CD.
Duplicate time points were removed periodically, centrifuged 30 min at 436,000g followed by HPLC analysis of monomer concentration from the carefully removed supernatant[41].
For sedimentation and ThT kinetics, as well as kinetics underlying the n* and Cr determinations and inhibition kinetics studies, each plotted data point is derived from analysis of 2–3 independent reaction aliquots. Each aggregation study was independently carried out twice, with similar results obtained.

T1 sequence (P05067 672-713): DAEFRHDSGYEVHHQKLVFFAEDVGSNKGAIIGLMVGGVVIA

For “Aβ40: full-length Aβ peptide ending at residue 40”, the “Exchange of the C-terminal 35–42/35–40 fragment after exposure of fibrils to D2O” value [1] is listed as “essentially fully exchanged” and the Cr of fibrils [2] is listed as 1.06 ± 0.18 µM.

In the case of “Aβ42: full-length Aβ peptide ending at residue 42”, the “Global HX incorporation” value (Aβ42 aggregates; Aβ42 aggregated alone) is reported as 14.8±1.2 deuteriums, the “Global HX incorporation” value (Aβ42 aggregates; Aβ42 aggregates grown in the presence of K10G2Aβ31–42) is reported as 25.6±1.2 deuteriums and the “Newly unprotected amide hydrogens” value (Aβ42 aggregates; Aβ42 aggregates grown with K10G2Aβ31–42 vs Aβ42 alone) is reported as roughly 11. For the same substance, the “Exchange of the C-terminal 35–42/35–40 fragment after exposure of fibrils to D2O” value [1] was “resists exchange” and the Cr of fibrils [2] was 0.11 ± 0.01 µM and 0.11 µM.

In the case of “H-KKQQQQQQQQQQQQQQQQQQQQQQQKKAIIGLMVGGVVIA-OH”, the fraction of reaction mixture sedimentable at early time is reported as 15%.

With KKKKKKKKKKGGIIGLMVGGVVIA [K10G2Aβ31–42] the “Monomer remaining in the reaction mixture” value [3] was roughly 13 µM.
